# Data: the supplement of paper PMC9112550, “Optimization of the antimicrobial peptide Bac7 by deep mutational scanning” (BMC Biology, 2022)
# System: Escherichia coli TOP10
# Assay: shrunken log2 fold change of peptide-encoding DNA abundance (4.5 h post-induction vs induction); higher = less antimicrobial activity (less host growth inhibition)
# Conditions: time post-induction: 4.5 h; library: site-saturation at positions 5, 18, 19, 20
# 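Further: peptides expressed intracellularly from a pBAD plasmid library in pooled LB shake-flask culture, induced with 0.3% L-arabinose, DNA abundance read by NGS, three biological replicates, DESeq2 with apeglm shrinkage.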
row,Sequence,shrunken log2 fold change
1,RRIRRRPPRLPRPRPRPMYNPRP,-0.137
2,RRIRWRPPRLPRPRPRPIPAPRP,0.523
3,RRIRCRPPRLPRPRPRPLVMPRP,-0.0664
4,RRIRFRPPRLPRPRPRPNKTPRP,-0.172
5,RRIRKRPPRLPRPRPRPKYMPRP,-0.0337
6,RRIRRRPPRLPRPRPRPDPYPRP,0.175
7,RRIRHRPPRLPRPRPRPGCMPRP,-0.0922
8,RRIRCRPPRLPRPRPRPTGSPRP,0.0208
9,RRIRGRPPRLPRPRPRPKEIPRP,0.57
10,RRIRSRPPRLPRPRPRPVYAPRP,0.0491
11,RRIRERPPRLPRPRPRPGQTPRP,-0.0328
12,RRIRKRPPRLPRPRPRPIRGPRP,0.0181
13,RRIRLRPPRLPRPRPRPRFVPRP,0.123
14,RRIRSRPPRLPRPRPRPVLWPRP,0.657
15,RRIRPRPPRLPRPRPRPHWWPRP,0.507
16,RRIRKRPPRLPRPRPRPNRSPRP,-0.0169
17,RRIRSRPPRLPRPRPRPPQQPRP,0.38
18,RRIRYRPPRLPRPRPRPKQLPRP,0.0588
19,RRIRHRPPRLPRPRPRPPATPRP,0.29
20,RRIRGRPPRLPRPRPRPAHTPRP,0.761
21,RRIRFRPPRLPRPRPRPRREPRP,0.177
22,RRIRWRPPRLPRPRPRPMMWPRP,0.0342
23,RRIRARPPRLPRPRPRPCYKPRP,-0.0942
24,RRIRFRPPRLPRPRPRPADRPRP,-0.0752
25,RRIRWRPPRLPRPRPRPKWIPRP,-0.0267

row,Sequence,shrunken log2 fold change
1,RRIRWRPPRLPRPRPRPSSQPRP,-0.317
2,RRIRMRPPRLPRPRPRPYDVPRP,-0.562
3,RRIRARPPRLPRPRPRPGSFPRP,0.495
4,RRIRTRPPRLPRPRPRPASAPRP,0.916
5,RRIRPRPPRLPRPRPRPWYTPRP,-0.0297
6,RRIRPRPPRLPRPRPRPYKRPRP,-0.345
7,RRIRIRPPRLPRPRPRPIKFPRP,-0.933
8,RRIRPRPPRLPRPRPRPTLSPRP,0.421
9,RRIRQRPPRLPRPRPRPMKEPRP,-0.0272
10,RRIRARPPRLPRPRPRPRTSPRP,0.382
11,RRIRGRPPRLPRPRPRPSGSPRP,0.128
12,RRIRERPPRLPRPRPRPPIYPRP,-0.633
13,RRIRERPPRLPRPRPRPFLVPRP,-0.119
14,RRIRTRPPRLPRPRPRPFDKPRP,-0.154
15,RRIRPRPPRLPRPRPRPYEQPRP,-0.116
16,RRIRERPPRLPRPRPRPAKQPRP,0.00996
17,RRIRGRPPRLPRPRPRPNWTPRP,0.0497
18,RRIRMRPPRLPRPRPRPTPNPRP,0.87
19,RRIRVRPPRLPRPRPRPNDGPRP,-0.133
20,RRIRMRPPRLPRPRPRPCVTPRP,0.0301
21,RRIRYRPPRLPRPRPRPHLHPRP,-1.12
22,RRIRTRPPRLPRPRPRPEWMPRP,-0.048
23,RRIRCRPPRLPRPRPRPTGGPRP,0.561
24,RRIRGRPPRLPRPRPRPCDAPRP,0.473
25,RRIRMRPPRLPRPRPRPTPRPRP,1.46
